Source: article PMC3710971 (Molecular Cell, 2013)

Columns and labels:
[1] = target: HDAC1 (full-length, untagged) (UniProt Q13547 1-482); assay: crystal structure
crystal structure = target: the molecule itself; assay: crystal structure

HDAC1 (full-length, untagged), sequence (Q13547 whole entry): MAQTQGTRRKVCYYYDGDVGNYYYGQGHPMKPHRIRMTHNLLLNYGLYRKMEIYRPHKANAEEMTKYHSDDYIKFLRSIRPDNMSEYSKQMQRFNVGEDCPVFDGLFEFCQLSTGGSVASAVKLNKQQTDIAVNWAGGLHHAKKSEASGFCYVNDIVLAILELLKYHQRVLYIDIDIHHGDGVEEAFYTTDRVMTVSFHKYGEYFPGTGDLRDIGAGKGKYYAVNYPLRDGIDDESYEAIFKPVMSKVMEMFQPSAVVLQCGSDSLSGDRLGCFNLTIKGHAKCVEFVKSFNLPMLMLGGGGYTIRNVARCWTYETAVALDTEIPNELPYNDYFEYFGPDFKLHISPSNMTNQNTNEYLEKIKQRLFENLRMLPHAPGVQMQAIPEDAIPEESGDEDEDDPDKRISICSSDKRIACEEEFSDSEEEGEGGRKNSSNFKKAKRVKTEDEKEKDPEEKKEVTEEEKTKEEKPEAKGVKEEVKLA

binding result [1]: binds
B1: ELM2-SANT domain of MTA1 (residues 162-335) (domain or fragment, UniProt Q13330 162-335, looked up)
chain: ADKGEIRVGNRYQADITDLLKEGEEDGRDQSRLETQVWEAHNPLTDKQIDQFLVVARSVGTFARALDCSSSVRQPSLHMSAAAASRDITLFHAMDTLHKNIYDISKAISALVPQGGPVLCRDEMEEWSASEANLFEEALEKYGKDFTDIQQDFLPWKSLTSIIEYYYMWKTTDR
binding result (crystal structure): binds
